Data from patent US20240117018A1.

What was measured:
Assay in all cases: cell-based or functional assay
[1] = molecular target: HIV-1 Env of pseudovirus Du172.17 (HIV-1)
[2] = molecular target: HIV-1 Env of pseudovirus Ce704809221_1B3 (HIV-1)
[3] = molecular target: HIV-1 Env of pseudovirus 6535.3 (HIV-1)
[4] = molecular target: HIV-1 Env of pseudovirus 246F C1G (HIV-1)
[5] = molecular target: HIV-1 Env of pseudovirus 3365.v2.c2 (HIV-1)
[6] = molecular target: HIV-1 Env of pseudovirus 6240_08_TA5_4622 (HIV-1)
[7] = molecular target: HIV-1 Env of pseudovirus PVO.4 (HIV-1)
[8] = molecular target: HIV-1 Env of pseudovirus 0260.v5.c36 (HIV-1)
[9] = molecular target: HIV-1 Env of pseudovirus CNE8 (HIV-1)
[10] = molecular target: HIV-1 Env of pseudovirus REJO4541.67 (HIV-1)
[11] = molecular target: HIV-1 Env of pseudovirus CNE52 (HIV-1)
[12] = molecular target: HIV-1 Env of pseudovirus TRJO4551.58 (HIV-1)
[13] = molecular target: HIV-1 Env of pseudovirus Q842.d12 (HIV-1)
[14] = molecular target: HIV-1 Env of pseudovirus Du422.1 (HIV-1)
[15] = molecular target: HIV-1 Env of pseudovirus ZM214M.PL15 (HIV-1)
[16] = molecular target: HIV-1 Env of pseudovirus ZM249M.PL1 (HIV-1)
[17] = molecular target: HIV-1 Env of pseudovirus T250-4 (HIV-1)
[18] = molecular target: HIV-1 Env of pseudovirus ZM233M.PB6 (HIV-1)
[19] = molecular target: HIV-1 Env of pseudovirus C2101.c01 (HIV-1)
[20] = molecular target: HIV-1 Env of pseudovirus CAP210.2.00.E8 (HIV-1)
[21] = molecular target: HIV-1 Env of pseudovirus Ce0682_E4 (HIV-1)
[22] = molecular target: HIV-1 Env of pseudovirus CNE20 (HIV-1)
[23] = molecular target: HIV-1 Env of pseudovirus Ce1172_H1 (HIV-1)
[24] = molecular target: HIV-1 Env of pseudovirus THRO4156.18 (HIV-1)
[25] = molecular target: HIV-1 Env of pseudovirus Ce703010054_2A2 (HIV-1)
[26] = molecular target: HIV-1 Env of pseudovirus HIV-16845-2.22 (HIV-1)
[27] = molecular target: HIV-1 Env of pseudovirus CNE30 (HIV-1)
[28] = molecular target: HIV-1 Env of pseudovirus Du156.12 (HIV-1)
[29] = molecular target: HIV-1 Env of pseudovirus 1012_11_TC21_3257 (HIV-1)
[30] = molecular target: HIV-1 Env of pseudovirus HIV-001428-2.42 (HIV-1)
[31] = molecular target: HIV-1 Env of pseudovirus Ce0393_C3 (HIV-1)
[32] = molecular target: HIV-1 Env of pseudovirus ZM197M.PB7 (HIV-1)
[33] = molecular target: HIV-1 Env of pseudovirus RHPA4259.7 (HIV-1)
[34] = molecular target: HIV-1 Env of pseudovirus 1056_10_TA11_1826 (HIV-1)
[35] = molecular target: HIV-1 Env of pseudovirus 1006_11_C3_1601 (HIV-1)
[36] = molecular target: HIV-1 Env of pseudovirus CNE53 (HIV-1)
[37] = molecular target: HIV-1 Env of pseudovirus Ce2010_F5 (HIV-1)
[38] = molecular target: HIV-1 Env of pseudovirus WITO4160.33 (HIV-1)

N49P7 (antibody)
IC50 [1]: 0.102 µg/mL | IC80 [1]: 0.668 µg/mL | MPI [1]: 100 | IC50 [2]: 0.141 µg/mL | IC80 [2]: 0.932 µg/mL | MPI [2]: 100 | IC50 [3]: 0.186 µg/mL | IC80 [3]: 0.598 µg/mL | MPI [3]: 100 | IC50 [4]: 0.094 µg/mL | IC80 [4]: 0.255 µg/mL | MPI [4]: 100 | IC50 [5]: 0.07 µg/mL | IC80 [5]: 0.186 µg/mL | MPI [5]: 100 | IC50 [6]: 0.457 µg/mL | IC80 [6]: 1.73 µg/mL | MPI [6]: 100 | IC50 [7]: 0.107 µg/mL | IC80 [7]: 0.365 µg/mL | MPI [7]: 100 | IC50 [8]: 0.354 µg/mL | IC80 [8]: 0.884 µg/mL | MPI [8]: 100 | IC50 [9]: 0.037 µg/mL | IC80 [9]: 0.125 µg/mL | MPI [9]: 100 | IC50 [10]: 0.015 µg/mL | IC80 [10]: 0.049 µg/mL | MPI [10]: 100 | IC50 [11]: 0.008 µg/mL | IC80 [11]: 0.023 µg/mL | MPI [11]: 100 | IC50 [12]: 0.104 µg/mL | IC80 [12]: 0.351 µg/mL | MPI [12]: 100 | IC50 [13]: 0.021 µg/mL | IC80 [13]: 0.06 µg/mL | MPI [13]: 100 | IC50 [14]: 4.5 µg/mL | IC80 [14]: 19.5 µg/mL | MPI [14]: 93 | IC50 [15]: 0.213 µg/mL | IC80 [15]: 0.953 µg/mL | MPI [15]: 100 | IC50 [16]: 0.039 µg/mL | IC80 [16]: 0.134 µg/mL | MPI [16]: 100 | IC50 [17]: 2.07 µg/mL | IC80 [17]: 21.4 µg/mL | MPI [17]: 91 | IC50 [18]: 0.226 µg/mL | IC80 [18]: 0.774 µg/mL | MPI [18]: 100 | IC50 [19]: 0.06 µg/mL | IC80 [19]: 0.34 µg/mL | MPI [19]: 100 | IC50 [20]: 1.82 µg/mL | IC80 [20]: 6.49 µg/mL | MPI [20]: 100 | IC50 [21]: 0.041 µg/mL | IC80 [21]: 0.131 µg/mL | MPI [21]: 100 | IC50 [22]: 0.028 µg/mL | IC80 [22]: 0.1 µg/mL | MPI [22]: 100 | IC50 [23]: 8.5 µg/mL | IC80 [23]: 37.5 µg/mL | MPI [23]: 92 | IC50 [24]: 2.34 µg/mL | IC80 [24]: 12.4 µg/mL | MPI [24]: 99 | IC50 [25]: 0.132 µg/mL | IC80 [25]: 0.466 µg/mL | MPI [25]: 100 | IC50 [26]: 0.95 µg/mL | IC80 [26]: 3.94 µg/mL | MPI [26]: 100 | IC50 [27]: 0.18 µg/mL | IC80 [27]: 0.609 µg/mL | MPI [27]: 100 | IC50 [28]: 0.032 µg/mL | IC80 [28]: 0.086 µg/mL | MPI [28]: 100 | IC50 [29]: 0.046 µg/mL | IC80 [29]: 0.125 µg/mL | MPI [29]: 100 | IC50 [30]: 0.006 µg/mL | IC80 [30]: 0.02 µg/mL | MPI [30]: 100 | IC50 [31]: 0.195 µg/mL | IC80 [31]: 0.802 µg/mL | MPI [31]: 100 | IC50 [32]: 0.109 µg/mL | IC80 [32]: 0.347 µg/mL | MPI [32]: 100 | IC50 [33]: 0.083 µg/mL | IC80 [33]: 0.246 µg/mL | MPI [33]: 100 | IC50 [34]: 0.141 µg/mL | IC80 [34]: 0.468 µg/mL | MPI [34]: 100 | IC50 [35]: 0.044 µg/mL | IC80 [35]: 0.158 µg/mL | MPI [35]: 100 | IC50 [36]: 0.035 µg/mL | IC80 [36]: 0.124 µg/mL | MPI [36]: 100 | IC50 [37]: 0.13 µg/mL | IC80 [37]: 0.547 µg/mL | MPI [37]: 100 | IC50 [38]: 0.084 µg/mL | IC80 [38]: 0.248 µg/mL | MPI [38]: 100
